From publication PMC9661471 (Journal of Medicinal Chemistry, 2022)
*1 amine or outer side, *2 acyl side, *3 side chain or, on linkers, in order; H or OH if unused. Bridges are numbered along the chain shown (N, C = ends). TATA = O=C(CC[*:1])N1CN(C(=O)CC[*:2])CN(C(=O)CC[*:3])C1

B1: Bicycle 10 (peptide)
peptide: Ac-CPFGCMKNWSWPIWC-NH2
modifications: linker 1-5-15 via TATA
SMILES: CC[C@H](C)[C@@H]1NC(=O)[C@@H]2CCCN2C(=O)[C@H](Cc2c[nH]c3ccccc23)NC(=O)[C@H](CO)NC(=O)[C@H](Cc2c[nH]c3ccccc23)NC(=O)[C@H](CC(N)=O)NC(=O)[C@H](CCCCN)NC(=O)[C@H](CCSC)NC(=O)[C@@H]2CSCCC(=O)N3CN(CN(C3)C(=O)CCSC[C@H](NC(C)=O)C(=O)N3CCC[C@H]3C(=O)N[C@@H](Cc3ccccc3)C(=O)NCC(=O)N2)C(=O)CCSC[C@@H](C(N)=O)NC(=O)[C@H](Cc2c[nH]c3ccccc23)NC1=O

Legend:
[1] = target: human Nectin-4 ECD (human) (UniProt Q96NY8); assay: SPR
human Nectin-4 ECD = target: T1, human Nectin-4 ECD (human, UniProt Q96NY8 32-349); assay: fluorescence polarisation
T1 sequence (looked up): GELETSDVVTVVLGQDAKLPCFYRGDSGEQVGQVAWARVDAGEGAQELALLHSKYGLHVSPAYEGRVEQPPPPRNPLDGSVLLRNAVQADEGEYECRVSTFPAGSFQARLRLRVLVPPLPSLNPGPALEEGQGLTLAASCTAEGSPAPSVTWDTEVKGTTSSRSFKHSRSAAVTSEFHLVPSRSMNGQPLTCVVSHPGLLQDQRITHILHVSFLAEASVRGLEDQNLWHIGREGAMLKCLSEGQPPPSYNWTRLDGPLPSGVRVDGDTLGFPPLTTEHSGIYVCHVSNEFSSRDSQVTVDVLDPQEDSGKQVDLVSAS

Molecule | Kd [1] [nM] | Ki (human Nectin-4 ECD) [nM]
Bicycle Toxin Conjugate BT8009 (peptide) | 2.5 | –
Ac-CPFGCMKNWSWPIWCTNK-NH2 (linker 1-5-15 via TATA) [Bicycle 8] | – | 13.5
B1 | – | 17.6
